# Target: other channels
# Assay: cell-based or functional assay
binder,measurement,value
RSCIDTIPKSRCTAFKCKHSIKYRLSFCRKTCGTCA (here or on the partner: 3 disulfide bonds (oxidatively folded synthetic peptide)) [synthetic ShK-235],selectivity for Kv1.3 over other channels (whole-cell patch-clamp),> 2200 fold

# Reference: patent US20250213627A1, “RECOMBINANT MICROORGANISM-BASED METHODS AND COMPOSITIONS FOR TREATMENT OF DISEASE” (Baylor College of Medicine, priority 2021, published 2025)
